# Measured values taken from the DeepSol protein solubility set.
# Assay: soluble on expression in E. coli; label from the status in PepcDB or PDB records
row,Sequence,soluble on expression in E. coli
1,MGSDKIHHHHHHMAAILPARITKVLPDSIAAEIGFEAGDALVAINGVQPRDLIDYKFLCSDEFLELEVLDASGKTHHIEIEKDYDEDLGLEFETALFDGLIQCNNRCPFCFIDQQPPGKRSSLYLKDDDYRLSFLYGSYLTLTNLPEREWQRIEQMRLSPLYVSVHATEPEVRIRLLKNQRAAQILDQLRWFQARRLQIHAQVVVCPGINDGKHLEQTLRDLASFHDGDVPTVASVAVVPVGLTRFRPEEDELIPVTREKAQEVIAQVRSLTQEFRRQFGSNVAWLADEWFLIAGEELPSEAEYEEYPQIDNGVGSIRLFLKQFAETAAELLPTKINHPKKLTWVVGNAVEKAFQPILKSLNAVEGLEINMCALSSDYWGQTISVTGLITGHDLLLHLKEQDLGGGILLPNVMLKHGELVFLDDMSVEEVAQKLHTKIIPIAGVKELIKTCITDSVSV,not soluble
2,LQNKFKKYSKIPTGNGMTGRDVAIKMLQDNGIYDVQVTHTPGQLTDHYNPANKTVNLSEGVYDSNSIMAAAVAAHECGHAVQHARAYAPLTLRSK,not soluble
3,MGSDKIHHHHHHMDVTSTLSLGDPLEPARKATADMLRSRDHSFSLPQPFYCDQRLFEIDMQEIFHKEWLIAGMTCEIPAKGNFLTLQIGKNPVLVIRGAEGQVHAFHNVCRHRGSRLCVSEKGKVAKLVCPYHQWTYELDGRLLFAGTEMGADFDMKEYGLKPIQVKTAGGYIFISLAENPPAIDDFLATLEHYMEPYDMENAKVAVQTTIREAANWKLVIENNRECYHCNGSHPELLKTLLEWDDVTDPRASQAFKDQVAACTSAWDAEKIPYAHASFGLRNRIVRMPLLDGTVSMTMDGKQGSKKLMGRIKNPDLGSMRILHLPHSWNHCMGDHLIVFTVWPISAQETLVTTKWLVHKDAVEGVDYDVARLREVWDATNDQDRRLAEENQRGINSDAYQPGPYSKTYEFGVINFLDWYSERMLNNLGEESAHVRKVAGS,not soluble
4,MGSDKIHHHHHHMAVTDKERKLAATLSDPVLWGQAYLYNRDGSGRDYWPHQVEDLRCPAKNIIHLDGRDVGKSIVLSTDALHYAFTTRGGQGLVAAPHQGHLDTIIEEIEFQLDTNPDLMNSIALTKYGKPKIHRKPYFRLEFTNGSVLYFRPAGAYGDAFRSLHVGRVWVDEGAWLTERAWKALRQCLKAGGTLRIYSTPNGLRDTTYYRLTSSEQFHVFRWPSWLNPLWTEDREAELLEFYGGRDSSGWQHEVAGEHGKPSYGAFNVEQFNLCRQDLLEYQKIVITDSELRDCDTEEAAHDRLEMLLNLTPRSGQFWVGGDLGYTNDPTEIVVFQEMEVGERTLLKMILRVHLEHVSYPHIAQIIALLERYYTPAGIGVDNGGNGLAVVQELLTLDKYKGLELEGRLKGYDFGGMTRLAVRDGKEIKKRTKELMTSLINGALQRKQLIFPSDDLEVEDQFTTHTYTLRDGKIIYSKGNDHIIDAVRCAMLIREEGNLDPVGEEVVSLKPVLTNPVFI,not soluble
5,MSLTKIVLITGANKGIGFETAKQIGKNGWTLLISTRNEERGKNAVHQLQQDGITAEWLQIDLNDIASIHKAARYVEERYPKLDGLINNAGISGDMQKNPLELKSSELEQLAKVNFLGNFEMIKSFTPILSRNHGRILNVTIPATPIGSFNPLGYLASKASLNSMIKSFAMYYKKHEIPVEIFGVLPGGISTDLNQHQSGLLIRTVQEGGESIAKVMMDRHNHQGKLLMRMGLTQLARNFVFRRHDEGHHHHHH,not soluble
6,MSHKLTILPFLIKFTPKFPQSIDHDEHGLNVYAFDLDHTIIKPKSPNISFSRSASDWQFINFNSKKSTLDYLCNIIDNDPTAVIVIFSNQGGVITVPRTSKSCTKYTNKILLFLKAIKNDERGETLSHRLWLYAAPKRPKTFAANHSKITFASLGESYNNDPNIFEKVRKPMTGMVEFFKRDLESAYRVSEQISPIKLNWIYYCGDAAGRKKDFSDSDIKFAENLHVEFKYPEEIFHG,soluble
7,MGSDKIHHHHHHMTIDTSFNFKSDTPAEKDPDTWSPTLAAYHKLLWSKSLPNGRVFTLEYEKPPFYLRHRSDVGEFCLSSDTVVPSFRKKTIDGVAKDEMNFGGLGYTIGGMMVFPAIPIERKWTINQARGCNRKISDRFDLTVECIRRYYSDAQSPLDDVLRRYVDFFTLFRDFAGYVEFFHLQDVVNSDFTAVKFFLPFEDFEATSPIPQSRDAYLQYRSAAIDFLNARNQRIQNWVAKNIKG,not soluble
8,MSGGLLIESVIPGSIASELEIEPGDRLVAVNNRPLRDIVDYNFHADGEELLLEIVKPSGEVWEVEVERDDDEALGLVFAAPEPARCGNRCVFCFVHQLPKGLRRPLYVKDEDYRLSFLYGNYVTLSNIGEEDLQRIIEQRLSPLYISVHATDPALRERLLGRKGIIPILDIMTRLAEARITMHTQAVLCPGWNDGDALRRTVADLASLYPRVASLAIVPVGLTRHRDRLPLLEPVSADYARDFIYEWLPEAQRLADAFGEPFLFLADEFFIKADAPFPPLDFYGDFPQIENGVGMIPLFMDEADRVLRRARRMKPRTLTVVTGHSPYRYLADFLARLSARTGITFQPVAIPNRLFGESVTVTGLVAGRDILSELAGRNLGDGVLIPDVMLKEGEGVFLDDLTIGALEQGLGVPVVVVPSSPAGVMEGIRALRPLEHHHHHH,not soluble
9,GPGSMLARGCVLRWHAVSARRVLGLHDGQSYTPADIKKAFRERALTAHPDAGGDADGFRQLQRAYEVLLHEHSVGKKGSEAAAASDDSEGGSGFYAHPHAEWCNDMRSQRAYWRDMYTEMNMNPNSCGSHRHASNTHYQARQHYRTYGEGLGEDFQKEFKSSSFAGGGQRGSQMNFSTWYFYRPYYSNYRNPFGTGFTPEEIRRAEQEQRRGFARAVARHACLWSGLAFVVYLHERNNRVWRAVEARDKGYKDPEYWEQLRKDEEEARRRSRAPLRLEQHWLDAPLMRSLMDLTEGGHSGGCGKNGQDAEDNISGAARAGTAWATQQARMAQERRRQAMSSTRGMRRGASGDVGGPRVVSYQGRPFTPNGVRGMRNTAPKTPKTYADDVTYEMDDDDDV,not soluble
10,MAEDYKLIDNEEKHRYEFQIDDKIAKIDYIKSNNGEIYLVHTEVPASLGGRGVGSQLAEKTLADIERQGLRLVPLCPFVAGYIHKHPEWKRIVMRGIHIK,not soluble
11,MLPLSLLKTAQNHPMLVELKNGETYNGHLVSCDNWMNINLREVICTSRDGDKFWRMPECYIRGSTIKYLRIPDEIIDMVKEEVVAKGRGRGGLQQQKQQKGRGMGGAGRGVFGGRGRGGIPGTGRGQPEKKPGRQAGKQ,soluble
12,MGSDKIHHHHHHMIAVLRINHRPFRDKRITTHVALTARAFGASSILVDEKDETLEQTINKVVENFGGNFFIKSGVDWKREFRNFKGIRVHLTMYGRPLEDVVKEIRESKKDVMILVGSEKVPFEAYEIADYNVSVTNQPISEVSALAIFLDRFYDGEELNWRFTGKINVYPSERGKKVKIIPDEQGCLDLLYKYGASDYLINHVKSVKELAVAIAKKTNADINLVTAGALLHDIGRTQVQGITHAVVGADILRREGIDDRVVSIVEKHIGAGIQSEEAVKLGLPPDNYVPETIEEMIVAHADNLFAGDKRLKLQQVVDNYRKKGLEDAAERIAKLHKFLSTVIGQDMDEI,not soluble
13,MGSDKIHHHHHHMPRSPSSQYLAIESLSRYAREERESALGIIRNVLQMSDIAPGRFNAAMQAVAMHGRIALHFHPDRFDSRGLTVAEGLLQDGRYRCQFETHISSGLLSPEIGGARDHWERQFFRELTTDIAARPKYGALDLLLAPNGPAPRFGSCYFLTKPEVLSRATFCFNDSYRNPRDKGTADAFEMVMAALLTESFERRYALGEHGLAPAKLVERLVSTLGEDIVMRFERGLSGNLDHYIEAQIHGPLSLAEDMEALVADPSFRGTEIEPLLRSIAERYQIALYWHSGLCLDVEHVVRDFRGAGMPSLAQRLAIDGNVTAYAIGVAAREVSRFPTRWRARGHKTEVLSELKWLWHLLVRYGAARDERETSFMLDESAPLQENVQAEPGGNDATCVQGTCKEEGFEASVTTEGAHTADAAAAVKDNSAS,not soluble
14,MTLSEEVASLQRAAHDLMYLGMDGSPIYSDDLSRRNNEVYRLTTTLYNSGVQGSTVEEQASVCLALLMGYNASFIDHGEKREHVQKILDRCWDILDTLPASLLKLRLLTACYGEVFDEPLADEARAIIASWDSVSLTTEQQEAINEFQTVVDNPYPWEYVEE,not soluble
15,QKFIARNRAPRVQIEYDVEIYGAERKIQLPFVMGVLADLAGKSNTPQPEVGERKFLDVDIDNFDERMKSVAPRAAFQVANTLTGAGHLNVDITFESIDDFSPATVARKVGALNEMLEARTQLANLLTYMDGKTGAEELIGQVLQNPALLGALAAAPKPA,not soluble
